Measurements published in US8993248B2, “Truncated human vitamin D binding protein and mutation and fusion thereof and related materials and methods of use” (Abbott Laboratories, priority 2011, dated 2015).

Tests used:
[1] = target: T1, yeast surface displayed hDBP3 (Homo sapiens, UniProt P02774); assay: Inhibition assay of free vitamin Ds on yeast surface displayed hDBP3; format: binding; conditions: for Ki: free vitamin D as inhibitor, yeast surface displayed hDBP3
T1 construct: made in house; host or cells: yeast (surface display, pYD vector)
T1 sequence (P02774 17-227): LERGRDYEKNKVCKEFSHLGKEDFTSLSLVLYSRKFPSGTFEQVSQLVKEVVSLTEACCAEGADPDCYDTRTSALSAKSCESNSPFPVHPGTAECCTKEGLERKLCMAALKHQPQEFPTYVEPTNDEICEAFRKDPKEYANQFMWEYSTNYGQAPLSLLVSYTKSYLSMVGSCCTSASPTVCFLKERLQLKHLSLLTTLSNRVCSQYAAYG
Procedure: Binding affinity of the hDBP3 truncate to vitamin D2, vitamin D3, 25-hydroxy vitamin D2, and 25-hydroxy vitamin D3 was determined.

[2] = target: T2, hDBP4-hFc 3-6 protein coated on microparticles (Homo sapiens, UniProt P02774, S92A/S95A); assay: Effect of displacement agent on microparticle DBP assay on the Abbott ARCHITECT instrument; format: binding; conditions: ANSA-present versus ANSA-free; FIG. 16
T2 construct: made in house
Procedure: For this study hDBP4-hFc 3-6 protein was coated on microparticles and binding was assessed on the Abbott ARCHITECT instrument to study the effect of adding a non-competitive displacement agent comprising 8-anilino-1-napthalenesulfonic acid ammonium salt (ANSA). ANSA separates any vitamin D metabolite in the sample from vitamin D binding protein to which the vitamin D metabolite is bound, was investigated. Microparticle diluent was used to remove ANSA in one condition (ANSA-free) but not the other (ANSA-present).

[3] = Storage stability of the protein by SDS-PAGE; format: physicochemical; conditions: protein expressed from HEK293 cells; room temperature, 2-8° C. and 37° C.; day 0, 3, 5, 7
Procedure: The hDBP4-hFc 3-6 protein expressed from HEK293 cells was tested for stability. hDBP4-hFc 3-6 protein (about 100 μl of 0.5 mg/ml) was stored at room temperature, 2-8° C., and 37° C. A sample of about 20 μl of hDBP4-hFc 3-6 was taken at day 0, 3, 5, and 7, mixed with 20 μl reduced 2× Laemmli sample buffer, and stored at 2-8° C. until SDS-PAGE gel analysis.

[4] = Reactivity of hDBP-hFc fusion proteins to 25-hydroxy vitamin D3-3-biotin (ELISA); format: binding; conditions: fusion protein produced as a dimer by HEK 293F transient transfection
Source text: The hDBP3 open reading frame (ORF) was amplified by PCR and linked to hFc, which contained a short hinge region with the first six amino acids deleted (to increase secretion), through SOEing (splicing by overlapping extension) PCR. The fusion protein ORF was cloned in pBOS vector (acquired from Abbott Bioresearch Center, Worcester, Mass.) through Nru I/Not I restriction digestion. Secretion of the fusion protein was directed by IgG heavy chain secretion signal peptide. The fusion protein was produced as a dimer by human embryonic kidney (HEK) 293F transient transfection. However, its reactivity to 25-hydroxy vitamin D3-3-biotin was weak.
The hDBP4 ORF was amplified from the pYD vector and linked to hFc through SOEing PCR. The fusion protein ORF was cloned in pBOS vector through Nru I/Not I restriction digestion. Secretion of the fusion protein was directed by IgG heavy chain secretion signal peptide. The fusion protein was produced as a dimer by HEK 293F transient transfection. Its reactivity to 25-hydroxy vitamin D3-3-biotin was confirmed by ELISA.
The hDBP3 mutant 3-6 was amplified from a pYD vector. The hFc with 56 amino acids from hDBP4 on its N-terminus was amplified from pBOS hDBP4-hFc. The two fragments were linked together through SOEing PCR. The resulting DNA vector was named pBOS hDBP4-hFc 3-6, which contained the two point mutations (S76A, S79A). […]

[5] = target: G-actin; conditions: read-out: Binding affinity for G-actin; cited from earlier work
[6] = Ligand titration of yeast surface displayed hDBP truncates; format: binding, human; conditions: for EC50: yeast surface displayed hDBP GC1S constructs, ligand 25-OH vitamin D3-3-biotin, read-out: Ag50 (antigen concentration at 50% of maximal binding signal); for Binding to the ligand 25-hydroxy vitamin D3-3-biotin, in words: compared to full-length hDBP
Procedure: A total of five hDBP truncates and the full-length hDBP (Table I) were cloned into pYD yeast display vector (Invitrogen) by polymerase chain reaction (PCR) and Nco I/Xho I restriction digestion.
Binding affinity to 25-hydroxy vitamin D3-3-biotin of each construct was measured by ligand titration (Table II). The Ag50 is the value (antigen concentration) generated at 50% of maximal binding signal, thus translating into the highest affinity. This testing was performed similar to that detailed in Friguet et al., J. Immunolog. Methods, 77:305-319 (1985).

[7] = Screen of the yeast-displayed hDBP3 mutation library (MACS/FACS, equilibrium competition staining); format: binding, human; conditions: relative to yeast surface-displayed hDBP3
Source text: The library was screened by one round of Magnetic Activated Cell Sorting (MACS) and two rounds of Fluorescence Activated Cell Sorting (FACS) with equilibrium competition staining. […] Mutant 3-6 contained two point mutations (S76A, S79A). Plasmid DNA of this clone was isolated.

T2 sequence (P02774 with tags, fused parts or gaps S92A/S95A): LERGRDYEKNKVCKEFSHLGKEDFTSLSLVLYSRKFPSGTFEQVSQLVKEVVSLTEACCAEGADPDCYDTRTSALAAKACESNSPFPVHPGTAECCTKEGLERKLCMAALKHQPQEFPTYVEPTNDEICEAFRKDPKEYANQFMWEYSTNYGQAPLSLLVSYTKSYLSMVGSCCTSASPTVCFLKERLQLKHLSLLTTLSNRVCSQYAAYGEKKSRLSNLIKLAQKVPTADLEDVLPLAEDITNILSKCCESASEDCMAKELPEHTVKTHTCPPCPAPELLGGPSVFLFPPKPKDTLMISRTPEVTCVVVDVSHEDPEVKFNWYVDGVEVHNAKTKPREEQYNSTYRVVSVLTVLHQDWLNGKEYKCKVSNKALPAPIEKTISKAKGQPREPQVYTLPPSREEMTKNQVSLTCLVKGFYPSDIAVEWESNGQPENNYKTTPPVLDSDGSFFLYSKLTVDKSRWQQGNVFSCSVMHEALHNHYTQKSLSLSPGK

For `C=C1CC[C@H](O)C/C1=C/C=C1\CCC[C@]2(C)[C@@H]([C@H](C)/C=C/[C@H](C)C(C)(C)O)CC[C@@H]12` [25-hydroxy Vitamin D2], the Ki [1] was 6.4 nM.

For `N.O=S(=O)(O)c1cccc2cccc(Nc3ccccc3)c12` [ANSA, 8-anilino-1-napthalenesulfonic acid ammonium salt], the “Effect on binding of vitamin D and tracer to DBP on the solid phase” value [2] was “disturbed the binding of vitamin D from the sample and tracer to the DBP on the solid phase”.

With “hDBP4-hFc 3-6: hDBP3 mutant 3-6 (S76A, S79A) plus 56 amino acids of hDBP4 fused to hFc, SEQ ID NO:10; dimer” the “Degradation on storage (SDS-PAGE 4-20%)” value [3] was “no degradation” and the “Reactivity to 25-hydroxy vitamin D3-3-biotin” value [4] was “higher than wild-type fusion protein”.

Work on `C=C1CC[C@H](O)C/C1=C/C=C1\CCC[C@]2(C)[C@@H]([C@H](C)/C=C/[C@H](C)C(C)C)CC[C@@H]12` [Vitamin D2] yielded a Ki [1] of 1390 nM.

Work on `C=C1CC[C@H](O)C/C1=C/C=C1\CCC[C@]2(C)[C@@H]([C@H](C)CCCC(C)C)CC[C@@H]12` [Vitamin D3] yielded a Ki [1] of 2970 nM.

With `C=C1CC[C@H](O)C/C1=C/C=C1\CCC[C@]2(C)[C@@H]([C@H](C)CCCC(C)(C)O)CC[C@@H]12` [25-hydroxy Vitamin D3] the Ki [1] was 3.8 nM.

B1: DBP: Naturally occurring triple-domain, monomeric serum glycoprotein that binds and transports vitamin D (protein, UniProt P02774 17-474, looked up)
Vitamin D-binding protein: LERGRDYEKNKVCKEFSHLGKEDFTSLSLVLYSRKFPSGTFEQVSQLVKEVVSLTEACCAEGADPDCYDTRTSALSAKSCESNSPFPVHPGTAECCTKEGLERKLCMAALKHQPQEFPTYVEPTNDEICEAFRKDPKEYANQFMWEYSTNYGQAPLSLLVSYTKSYLSMVGSCCTSASPTVCFLKERLQLKHLSLLTTLSNRVCSQYAAYGEKKSRLSNLIKLAQKVPTADLEDVLPLAEDITNILSKCCESASEDCMAKELPEHTVKLCDNLSTKNSKFEDCCQEKTAMDVFVCTYFMPAAQLPELPDVELPTNKDVCDPGNTKVMDKYTFELSRRTHLPEVFLSKVLEPTLKSLGECCDVEDSTTCFNAKGPLLKKELSSFIDKGQELCADYSENTFTEYKKKLAERLKAKLPDATPTELAKLVNKHSDFASNCCSINSPPLYCDSEIDAELKNIL
For B1, the Kd [5] is given as roughly 10 nM.

B2: hDBP0 (Full-Length): Full-length human vitamin D binding protein, allele GC1S; domains I, II, III of 191, 187, 80 amino acids (protein, UniProt P02774 17-474, looked up)
Vitamin D-binding protein: LERGRDYEKNKVCKEFSHLGKEDFTSLSLVLYSRKFPSGTFEQVSQLVKEVVSLTEACCAEGADPDCYDTRTSALSAKSCESNSPFPVHPGTAECCTKEGLERKLCMAALKHQPQEFPTYVEPTNDEICEAFRKDPKEYANQFMWEYSTNYGQAPLSLLVSYTKSYLSMVGSCCTSASPTVCFLKERLQLKHLSLLTTLSNRVCSQYAAYGEKKSRLSNLIKLAQKVPTADLEDVLPLAEDITNILSKCCESASEDCMAKELPEHTVKLCDNLSTKNSKFEDCCQEKTAMDVFVCTYFMPAAQLPELPDVELPTNKDVCDPGNTKVMDKYTFELSRRTHLPEVFLSKVLEPTLKSLGECCDVEDSTTCFNAKGPLLKKELSSFIDKGQELCADYSENTFTEYKKKLAERLKAKLPDATPTELAKLVNKHSDFASNCCSINSPPLYCDSEIDAELKNIL
modifications: allele GC1S
notes: domains I, II, III of 191, 187, 80 amino acids
With B2 the EC50 [6] was 65 nM.

B3: hDBP3: hDBP truncate: domain I plus first α-helix of domain II (amino acids 1-211), SEQ ID NO:12 (protein, listed as Homo sapiens)
chain: LERGRDYEKNKVCKEFSHLGKEDFTSLSLVLYSRKFPSGTFEQVSQLVKEVVSLTEACCAEGADPDCYDTRTSALSAKSCESNSPFPVHPGTAECCTKEGLERKLCMAALKHQPQEFPTYVEPTNDEICEAFRKDPKEYANQFMWEYSTNYGQAPLSLLVSYTKSYLSMVGSCCTSASPTVCFLKERLQLKHLSLLTTLSNRVCSQYAAYG
In the case of B3, the “Binding preference among vitamin D2, vitamin D3, 25-hydroxy vitamin D2 and 25-hydroxy vitamin D3” value [1] is reported as “preferentially bound to hydroxylated vitamin D213”, the “Binding to the ligand 25-hydroxy vitamin D3-3-biotin, in words” value [6] is reported as “bound to the ligand with similar affinity to the full-length hDBP” and the EC50 [6] is reported as 83 nM.

B4: 3-6: hDBP3 clone with two point mutations (S76A, S79A), SEQ ID NO:2 (protein, listed as Homo sapiens)
chain: LERGRDYEKNKVCKEFSHLGKEDFTSLSLVLYSRKFPSGTFEQVSQLVKEVVSLTEACCAEGADPDCYDTRTSALAAKACESNSPFPVHPGTAECCTKEGLERKLCMAALKHQPQEFPTYVEPTNDEICEAFRKDPKEYANQFMWEYSTNYGQAPLSLLVSYTKSYLSMVGSCCTSASPTVCFLKERLQLKHLSLLTTLSNRVCSQYAAYG
With B4 the “Increase in affinity to 25-hydroxy vitamin D3-3-biotin” value [7] was “six-fold increase in affinity”.

B5: hDBP4: hDBP truncate: domain I plus about half of domain II, 56 amino acids longer than hDBP3, SEQ ID NO:14 (protein, listed as Homo sapiens)
chain: LERGRDYEKNKVCKEFSHLGKEDFTSLSLVLYSRKFPSGTFEQVSQLVKEVVSLTEACCAEGADPDCYDTRTSALSAKSCESNSPFPVHPGTAECCTKEGLERKLCMAALKHQPQEFPTYVEPTNDEICEAFRKDPKEYANQFMWEYSTNYGQAPLSLLVSYTKSYLSMVGSCCTSASPTVCFLKERLQLKHLSLLTTLSNRVCSQYAAYGEKKSRLSNLIKLAQKVPTADLEDVLPLAEDITNILSKCCESASEDCMAKELPEHTV
For B5, the “Binding to the ligand 25-hydroxy vitamin D3-3-biotin, in words” value [6] was “retains binding affinity” and the EC50 [6] was 95 nM.
